# Values of other authors as cited in publication PMC11271873.
# How the values were obtained:
# Conditions in all cases: free peptide
# [1] = system: Cterm (position 2, ----KK-----)
# [2] = system: Nterm (position 1, -----KK----)
# [3] = system: Cterm (position 3, ---KKK-----)
# [4] = system: Nterm (position 1, -----KKK---)
Substance,pKa [1],pKa [2],pKa [3],pKa [4]
Lys-Lys (di-lysine) (synthetic),"3,01","7,53",,
Lys-Lys-Lys (tri-lysine) (synthetic),,,"3,08","7,34"
